± gives the standard deviation of the averaged measurements.
Test system: Saccharomyces cerevisiae
Assay: protein stability index of tFT-peptide fusion (C-terminal peptide) (PSI (0-1 scale)); higher = more stable (slower turnover)
Settings: temperature: 30 C
Description: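 MPS profiling in S. cerevisiae of the yeast C-terminome library: the last 12 aa of each annotated ORF are fused to the C-terminus of a sfGFP-mCherry timer, after a GGGS linker. Cells are FACS-sorted into 8 mCherry/sfGFP bins and deep-sequenced. PSI runs from 0 (unstable) to 1 (stable); wild type and das1Δ backgrounds, two technical replicates each.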

[1] = genetic background: das1 deletion

| Sequence | protein stability index [1] | protein stability index (genetic background: wild type) |
| --- | --- | --- |
| NDIFIPEQEHKQ [HPT1 C-terminal 12 aa] | 0.721 ± 0.011 | 0.674 ± 0.029 |
| NELSLRPATERI [YBL100W-A C-terminal 12 aa] | 0.6853 ± 0.0012 | 0.711 ± 0.015 |
| NEPEVQPEAAAN [PUS1 C-terminal 12 aa] | 0.679 ± 0.0086 | 0.69 ± 0.011 |
| NESLNDYFTGIK [YBP1 C-terminal 12 aa] | 0.706 ± 0.0084 | 0.772 ± 0.16 |
| NFAMLGLGPNWE [YUH1 C-terminal 12 aa] | 0.722 ± 0.0065 | 0.725 ± 0.057 |
| NFWNTGSAIFMQ [YHR069C-A C-terminal 12 aa] | 0.7347 ± 0.0017 | 0.719 ± 0.029 |
| NGMWQKPEPGVS [YIL067C C-terminal 12 aa] | 0.691 ± 0.012 | 0.706 ± 0.028 |
| NGRYVDTDFDSM [LCB5 C-terminal 12 aa] | 0.707 ± 0.02 | 0.659 ± 0.013 |
| NGTMKRGGVKNK [HPC2 C-terminal 12 aa] | 0.697 ± 0.02 | 0.6239 ± 0.0045 |
| NHPSNDSGNEKN [HCM1 C-terminal 12 aa] | 0.667 ± 0.025 | 0.656 ± 0.029 |
| NHSSSGNKHDEL [MPD1 C-terminal 12 aa] | 0.657 ± 0.0067 | 0.686 ± 0.035 |
| NIILNWIYPYQR [COX18 C-terminal 12 aa] | 0.703 ± 0.033 | 0.778 ± 0.076 |
| NILFVMKEGRIY [YJL213W C-terminal 12 aa] | 0.681 ± 0.016 | 0.711 ± 0.056 |
| NIREARYEQQLK [CTF4 C-terminal 12 aa] | 0.733 ± 0.035 | 0.689 ± 0.03 |
| NIYNPMDEEENQ [TFB5 C-terminal 12 aa] | 0.718 ± 0.025 | 0.683 ± 0.032 |
| NLEATNNKKPPL [DAD4 C-terminal 12 aa] | 0.6963 ± 0.0043 | 0.6968 ± 0.00081 |
| NLMEMFTKRDRS [ROD1 C-terminal 12 aa] | 0.72 ± 0.022 | 0.713 ± 0.033 |
| NLNQHVKTHASL [COM2 C-terminal 12 aa] | 0.6752 ± 0.0042 | 0.681 ± 0.029 |
| NMRFFYRLYVKN [BMT6 C-terminal 12 aa] | 0.489 ± 0.015 | 0.45 ± 0.0084 |
| NNFCALYNLSNP [RPN14 C-terminal 12 aa] | 0.714 ± 0.022 | 0.6867 ± 0.0038 |
| NNTFLDVQAKSN [IMP1 C-terminal 12 aa] | 0.6944 ± 0.0068 | 0.712 ± 0.026 |

| Sequence | protein stability index [1] | protein stability index (genetic background: wild type) |
| --- | --- | --- |
| NRFGVLPDDVEE [ECM1 C-terminal 12 aa] | 0.714 ± 0.024 | 0.704 ± 0.032 |
| NSAAFLLMSLKS [STB3 C-terminal 12 aa] | 0.674 ± 0.0086 | 0.679 ± 0.011 |
| NSAFSSASVTKP [YFR057W C-terminal 12 aa] | 0.711 ± 0.0094 | 0.682 ± 0.023 |
| NSALSSTSTLAI [RIB1 C-terminal 12 aa] | 0.6419 ± 0.0051 | 0.64 ± 0.04 |
| NSLTQKYGTNNV [AAD15 C-terminal 12 aa] | 0.698 ± 0.016 | 0.697 ± 0.029 |
| NSSGEFQLESLF [MRI1 C-terminal 12 aa] | 0.707 ± 0.023 | 0.698 ± 0.051 |
| NSVDWIYSWGKN [MIC12 C-terminal 12 aa] | 0.716 ± 0.03 | 0.74 ± 0.019 |
| NTAGQKPTEYHY [APA2 C-terminal 12 aa] | 0.7199 ± 0.0016 | 0.702 ± 0.019 |
| NTEQAYSQPFRY [NVJ1 C-terminal 12 aa] | 0.702 ± 0.021 | 0.722 ± 0.016 |
| NTESSDKGAKIQ [SIN3 C-terminal 12 aa] | 0.701 ± 0.035 | 0.664 ± 0.012 |
| NTGFDPHLEDGM [TBF1 C-terminal 12 aa] | 0.708 ± 0.032 | 0.691 ± 0.039 |
| NTKHYNDTLLKQ [PHO11 C-terminal 12 aa] | 0.718 ± 0.0081 | 0.66 ± 0.0066 |
| NTTRYNASLVNQ [DIA3 C-terminal 12 aa] | 0.741 ± 0.031 | 0.712 ± 0.044 |
| NVIIQDKTKKTQ [MCD4 C-terminal 12 aa] | 0.733 ± 0.028 | 0.671 ± 0.011 |
| NVKSSTQEKDSK [SGN1 C-terminal 12 aa] | 0.706 ± 0.014 | 0.721 ± 0.053 |
| NYEDLATTQAAS [BRN1 C-terminal 12 aa] | 0.722 ± 0.011 | 0.68 ± 0.013 |
| NYQKNEPVEFLE [MIN9 C-terminal 12 aa] | 0.711 ± 0.0097 | 0.656 ± 0.026 |
| PDVLRKLSHQNV [PNS1 C-terminal 12 aa] | 0.713 ± 0.0075 | 0.666 ± 0.025 |
| PENGSLFEFDDN [SNU66 C-terminal 12 aa] | 0.6962 ± 0.005 | 0.6836 ± 0.0039 |
| PFALPSNDKVFF [ATO2 C-terminal 12 aa] | 0.698 ± 0.027 | 0.731 ± 0.0052 |
| PFIFKTLEEQGL [CCP1 C-terminal 12 aa] | 0.743 ± 0.06 | 0.691 ± 0.065 |

| Sequence | protein stability index [1] | protein stability index (genetic background: wild type) |
| --- | --- | --- |
| PFLEKLTLSGLL [CDC45 C-terminal 12 aa] | 0.714 ± 0.0059 | 0.694 ± 0.0088 |
| PFPQKHRDNHLV [YOR053W C-terminal 12 aa] | 0.701 ± 0.025 | 0.711 ± 0.012 |
| PGPISFLPVIPI [YLR402W C-terminal 12 aa] | 0.7092 ± 0.0061 | 0.744 ± 0.12 |
| PHEAALPKPSFV [EDC2 C-terminal 12 aa] | 0.7069 ± 0.0042 | 0.719 ± 0.038 |
| PHSQNEILQYYL [NAT1 C-terminal 12 aa] | 0.705 ± 0.0095 | 0.722 ± 0.065 |
| PHYKPRDGSQVE [SPT4 C-terminal 12 aa] | 0.69 ± 0.011 | 0.65 ± 0.0097 |
| PICIVGNFIPLS [RDS2 C-terminal 12 aa] | 0.689 ± 0.024 | 0.722 ± 0.024 |
| PICKLLEEEERG [ALG11 C-terminal 12 aa] | 0.7 ± 0.011 | 0.699 ± 0.041 |
| PINDRKYPNQCH [SPR1 C-terminal 12 aa] | 0.715 ± 0.028 | 0.6948 ± 0.0011 |
| PIQQSIAHINPP [LDS2 C-terminal 12 aa] | 0.718 ± 0.0075 | 0.6902 ± 0.0066 |
| PKDLTSLLEWKE [CLA4 C-terminal 12 aa] | 0.7005 ± 0.006 | 0.681 ± 0.044 |
| PLSKMEDQVFVF [CBR1 C-terminal 12 aa] | 0.663 ± 0.036 | 0.657 ± 0.027 |
| PQFKYRADFLII [APE3 C-terminal 12 aa] | 0.664 ± 0.011 | 0.676 ± 0.037 |
| PQRTKIQAFNTL [MRP1 C-terminal 12 aa] | 0.70194 ± 0.0001 | 0.675 ± 0.029 |
| PRGQDTEDHILE [PIF1 C-terminal 12 aa] | 0.725 ± 0.02 | 0.692 ± 0.0098 |
| PRLKAKKKVTKP [TFB4 C-terminal 12 aa] | 0.6873 ± 0.003 | 0.67 ± 0.012 |
| PSENFATKAKLP [YDR187C C-terminal 12 aa] | 0.7507 ± 0.0029 | 0.71 ± 0.025 |
| PSIQHDYTMEGW [ATG3 C-terminal 12 aa] | 0.72275 ± 0.00032 | 0.6562 ± 0.0032 |
| PSPYYVSEVPVS [Q0010 C-terminal 12 aa] | 0.6371 ± 0.0047 | 0.6238 ± 0.0025 |
| PSSEEDILHDEL [LHS1 C-terminal 12 aa] | 0.68 ± 0.046 | 0.692 ± 0.034 |
| PSVSRKTPDYFL [PPH21 C-terminal 12 aa] | 0.701 ± 0.053 | 0.7 ± 0.032 |

| Sequence | protein stability index [1] | protein stability index (genetic background: wild type) |
| --- | --- | --- |
| PSYEMRYNKNER [YBL065W C-terminal 12 aa] | 0.7137 ± 0.0027 | 0.715 ± 0.0081 |
| PTQPTVSNKKNN [GPI14 C-terminal 12 aa] | 0.7252 ± 0.0055 | 0.68 ± 0.022 |
| PVHLQTVGLVDC [PIR5 C-terminal 12 aa] | 0.623 ± 0.032 | 0.672 ± 0.058 |
| PYKSTELRSVAN [YDL187C C-terminal 12 aa] | 0.671 ± 0.04 | 0.742 ± 0.048 |
| QAKFFYQDLMSL [YHL046W-A C-terminal 12 aa] | 0.72 ± 0.038 | 0.739 ± 0.052 |
| QAQLTAATNAKQ [PDC5 C-terminal 12 aa] | 0.6916 ± 0.0017 | 0.731 ± 0.069 |
| QDEDEDEDIEMQ [RAD3 C-terminal 12 aa] | 0.6935 ± 0.0052 | 0.705 ± 0.057 |
| QDYVKDRHHGLK [NUP157 C-terminal 12 aa] | 0.698 ± 0.01 | 0.679 ± 0.043 |
| QEPVIDPGTVVV [MRPL3 C-terminal 12 aa] | 0.6775 ± 0.0024 | 0.676 ± 0.011 |
| QEQQNLRQKQPN [YBL029C-A C-terminal 12 aa] | 0.704 ± 0.01 | 0.7093 ± 0.0059 |
| QESTLETTQKED [AFI1 C-terminal 12 aa] | 0.703 ± 0.032 | 0.666 ± 0.018 |
| QETAISVAKLFK [RPT6 C-terminal 12 aa] | 0.684 ± 0.007 | 0.7079 ± 0.007 |
| QFAQDTLKNFVQ [SAM35 C-terminal 12 aa] | 0.733 ± 0.022 | 0.713 ± 0.03 |
| QGRQGFNGGSRW [YNL208W C-terminal 12 aa] | 0.706 ± 0.025 | 0.681 ± 0.028 |
| QKARDFSRSVVH [ARO2 C-terminal 12 aa] | 0.696 ± 0.00098 | 0.698 ± 0.021 |
| QKTAQQKNCSIM [YNL234W C-terminal 12 aa] | 0.746 ± 0.018 | 0.721 ± 0.019 |
| QLAIALSLSEIN [UFO1 C-terminal 12 aa] | 0.694 ± 0.011 | 0.714 ± 0.035 |
| QLISTPIKDNEH [KIC1 C-terminal 12 aa] | 0.693 ± 0.018 | 0.682 ± 0.031 |
| QLKLLNALDSVD [YDR537C C-terminal 12 aa] | 0.696 ± 0.011 | 0.757 ± 0.069 |
